These results are taken from US20090226442A1 (Biogen, published 2009).

Assay [1] addresses T1, human RON (recepteur d'origine nantais, MST1R), full length, expressed on cells (human, UniProt Q04912 25-1400).
T1 construct: On SW480 tumor cells it is endogenous; also called hRON; SW480-RON cells
Briefly: flow cytometry on SW480 tumor cells, 4P fit (apparent affinity). The protocol:
The binding of RON antibodies to RON expressing tumor cells was analyzed by flow cytometry, and an apparent affinity was calculated. Confluent SW480 cells were detached with 5 mM EDTA, washed 1× with FACS buffer (1% FCS, 0.05% sodium azide, 1×PBS) and resuspended at 0.5-1.0×10⁷/ml. The cells were added to a 96-well V bottom polypropylene plate at 100 μl/well. Antibody dilutions were made up in FACS buffer at 2× final concentration and added to the plate at 100 μl/well. The plate was incubated for 1 hour at 4° C., followed by washing 3× with FACS buffer. The cell pellets were then resuspended in 150 μl of PE labeled goat anti-murine IgG H & L secondary antibody, diluted 1/200, and incubated for 1 hour at 4° C. The cells were then washed 1× with FACS buffer and fixed with 150 μl 3% formaldehyde at room temperature for 10 minutes. The cell pellets were resuspended in 150 μl FACS buffer and analyzed by FACS. The EC50 of binding was calculated from the binding curves using a standard 4P fit equation.

Assay [2] deals with T2, PSI domain of RON (G502-P544) thioredoxin fusion protein (human, UniProt Q04912 526-568).
T2 construct: Expressed in E. coli; also called PSI domain alone; not shown: thioredoxin (printed 'thiroedexin') fusion partner; purified on
T2 chain: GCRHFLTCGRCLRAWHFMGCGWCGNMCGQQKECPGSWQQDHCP
Briefly: ELISA on plate-coated PSI domain thioredoxin fusion. The protocol: The ability of the antibodies to bind to soluble RON was measured using a standard ELISA protocol. Briefly, soluble RON protein (R&D Systems, catalog 1947) was coated on Nunc Maxisorb ELISA plates at a concentration of […] in PBS overnight at 4° C. Plates were washed 4 times with an automatic washer in PBS, 0.05% Tween 20. Plates were then blocked in PBS+1% BSA for 1-2 hours at room temperature (RT). After washing, serial dilutions of the antibodies in blocking buffer were added to the plate (100 ul/well) and incubated for 1-2 hours at RT. The plate was washed again 4× with automatic washer (PBS, 0.05% tween 20). Next, the plate was incubated with HRP-labelled donkey anti-mouse polyclonal antibody (Jackson Labs 715-035-130) at a dilution of 1:4000 in blocking buffer (100 ul/well) for 0.5-1 hour RT. The plate was washed again 4× with automatic washer (PBS, 0.05% Tween 20). After the final wash step, the plate was developed with TMB solution (25 ml 100 mM sodium acetate, pH to 6 with citric acid, 4 ul 30% H202, 250 ul 42 mM TMB in DMSO) for 5 minutes. The reaction was stopped with 100 ul H₂SO₄. Plates were read at 450 nm wavelength on Molecular Devices Spectramax M5 and Softmax pro V5 software was used to analyze the data.
The PSI domain of RON (G502-P544) was expressed in E. coli as a thiroedexin-fusion protein. The protein was purified on NiNTA agarose (qiagen) followed by preparative size exclusion chromatography (SEC). This protein was used to coat ELISA plates and analyze antibodies for binding using the same protocol described above for binding of antibodies to soluble RON in Example 10.

B1: 1P2E7 murine monoclonal anti-RON antibody (antibody, V domains shown)
VH: DVQLQESGPGLVKPSQSLSLTCTVTGDSITSDYAWNWIRQFPGNKLEWMGYISYSGSTSYNPSLKSRFSITRDTSKNQFFLQLNSVTTEDSATYYCARGGFYYRYAGPGFAYWGQGTLVTVSA
VL: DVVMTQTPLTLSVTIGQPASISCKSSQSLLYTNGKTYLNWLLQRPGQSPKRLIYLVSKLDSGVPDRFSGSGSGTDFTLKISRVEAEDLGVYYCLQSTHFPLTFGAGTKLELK
notes: Whole murine hybridoma antibody; kappa light chain; also called 1P2E7.3; 1.P2E7.3
Regarding B1, the EC50 in assay [1] was 0.09 nM. Moreover, the binding result in assay [2] is on record as “no binding”.

B2: 1P4A12 murine monoclonal anti-RON antibody (antibody, V domains shown)
VH: EVQLQQSGPELVKPGASMKISCKASGYSFTGYTMNWVKQSHGKKLEWIGLINPYNGGTIYNQKFKGKATLTVDKSSSTAYMELLSLTSEDSAVYYCARWLRRGGYAMDYWGQGASVTVSS
VL: DILLTQSPAILSVSPGERVSFSCRASQSIGTSIHWYQQRTNGSPRLLIKFASESISGIPSRFSGSGSGTDFTLSINSVESEDIADYYCQQSDSWPLTFGAGTKLEVK
notes: Whole murine hybridoma antibody; kappa light chain; also called 1P4A12.2; 1.P4A12.2
Turning to B2, in assay [1], the EC50 turned out to be 0.07 nM. Besides, the binding result in assay [2] was “no binding”.

B3: 1P5B10 murine monoclonal anti-RON antibody (antibody, V domains shown)
VH: EVQLQQSGPELVKPGASMKISCRAAGFSFTGYTMNWVKQSHGKSLEWIGLINLNNGGTSHNQKFKGKATLTVDKSSSTAYMELLSLTSEDSAVYYCARWLRRGGYAMDYWGQGISVTVSS
VL: DILLTQSPAILSVSPGERVSFSCRASQNIGTSIHWYQQRTNGSPRLLIKYASESISGIPSRFSGSGSGTDFTLSINSVESEDIADYYCQQSDSWPLTFGAGTKLELK
notes: Whole murine hybridoma antibody; kappa light chain; also called 1P5B10.3; 1.P5B10.3.10
Turning to B3, the EC50 in assay [1] was determined as 0.34 nM. Besides, the binding result in assay [2] is given as “no binding”.

B4: 1P3B2 murine monoclonal anti-RON antibody (antibody, V domains shown)
VH: EVQLQQSGPELEKPGASVKISCKASGYSFTGYNMNWVKQSNGESLEWIGDIDPYYGGTRYNQKFKGKATLTVDKSSSTAYMQLKSLTSEDSAVYYCAREGRGFAYWGQGTLVTVSA
VL: DIQMTQSPASLSASVGETVTITCRASENIYSYLAWYQKKQGKSPQLLVYNAKTSVEGVPSRFSGSGSGIQFSLKINSLQPEDFGSYYCHCQHHYGTLPTFGGGTKLEIK
notes: Whole murine hybridoma antibody; kappa light chain; also called 1P3B2.2; PTA-8813
For B4, the EC50 in assay [1] worked out at 0.04 nM. For the same molecule, in assay [2], the binding result is “no binding”.

B5: 1P4A3 murine monoclonal anti-RON antibody (antibody, V domains shown)
VH: EVQLQQSGPELEKPGASVMISCKASGYSFTGYNMNWVKQSTGKSLEWIGDIDPYYDGTRYNQKFKGKATLTADKSSSTAYMQLKSLTSEDSAVYYCTREGRGFAYWGQGTLVTVSA
VL: DIQMTQSPASLSASVGETVTITCRASENIYSYLAWYQQKQGKSPQLLVYNAKTLAGGVPSRFSGSGSGTQFSLKINSLQPEDFGSYYCQHYYGTPLTFGAGTKLELK
notes: Whole murine hybridoma antibody; kappa light chain; also called 1P4A3.3; 1.P4A3.3
With B5, in assay [1], the EC50 turned out to be 0.07 nM. In addition, the binding result in assay [2] was “no binding”.
